Molecular target: T1, retinal guanylate cyclase 1 (mouse (endogenous in retina), UniProt P52785 55-1108)
T1 construct: retinal guanylate cyclase 1 (GC-1), mouse, endogenous in the retina; Endogenous protein precipitated by the anti-GC-1 antibody 1S4 and detected by Western blotting; also called GC-1; RetGC1
T1 sequence (looked up): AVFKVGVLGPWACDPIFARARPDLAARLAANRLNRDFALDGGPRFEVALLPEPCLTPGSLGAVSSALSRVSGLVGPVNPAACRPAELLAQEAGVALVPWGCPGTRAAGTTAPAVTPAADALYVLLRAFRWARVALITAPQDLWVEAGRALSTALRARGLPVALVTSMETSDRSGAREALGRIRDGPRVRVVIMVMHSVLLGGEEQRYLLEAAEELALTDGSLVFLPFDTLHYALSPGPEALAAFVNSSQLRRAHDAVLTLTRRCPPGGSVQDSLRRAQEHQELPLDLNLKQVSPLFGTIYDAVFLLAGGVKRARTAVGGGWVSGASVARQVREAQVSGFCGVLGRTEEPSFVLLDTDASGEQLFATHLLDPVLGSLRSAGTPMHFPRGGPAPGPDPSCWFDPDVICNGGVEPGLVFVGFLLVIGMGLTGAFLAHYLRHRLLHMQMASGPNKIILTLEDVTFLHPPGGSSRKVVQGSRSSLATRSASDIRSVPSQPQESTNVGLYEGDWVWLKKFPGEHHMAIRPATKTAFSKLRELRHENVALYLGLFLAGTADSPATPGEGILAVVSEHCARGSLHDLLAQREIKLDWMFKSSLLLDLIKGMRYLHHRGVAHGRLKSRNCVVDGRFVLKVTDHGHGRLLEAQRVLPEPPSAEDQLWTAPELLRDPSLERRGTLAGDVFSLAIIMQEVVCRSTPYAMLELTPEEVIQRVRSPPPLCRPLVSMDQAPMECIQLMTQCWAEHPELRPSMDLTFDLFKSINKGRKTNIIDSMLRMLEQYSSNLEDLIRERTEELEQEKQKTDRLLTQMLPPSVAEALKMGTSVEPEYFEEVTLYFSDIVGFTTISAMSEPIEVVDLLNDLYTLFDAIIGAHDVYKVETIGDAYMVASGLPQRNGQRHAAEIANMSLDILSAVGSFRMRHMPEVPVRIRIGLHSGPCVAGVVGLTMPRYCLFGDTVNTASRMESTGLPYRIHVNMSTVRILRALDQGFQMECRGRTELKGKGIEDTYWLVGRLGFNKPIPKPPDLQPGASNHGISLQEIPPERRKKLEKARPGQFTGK
Test: co-IP; Rho+/- mouse retinal lysate; anti-GC-1 antibody 1S4 (0.2 μg), minimal amount (5 μl) of protein A/G magnetic beads; eluate analysed by Western blotting for GC-1 and rhodopsin; control: non-immune mouse IgG
Conditions: partners not purified

B1: rhodopsin (receptor, mouse (endogenous in retina), UniProt P15409 1-348, looked up)
chain: MNGTEGPNFYVPFSNVTGVVRSPFEQPQYYLAEPWQFSMLAAYMFLLIVLGFPINFLTLYVTVQHKKLRTPLNYILLNLAVADLFMVFGGFTTTLYTSLHGYFVFGPTGCNLEGFFATLGGEIALWSLVVLAIERYVVVCKPMSNFRFGENHAIMGVVFTWIMALACAAPPLVGWSRYIPEGMQCSCGIDYYTLKPEVNNESFVIYMFVVHFTIPMIVIFFCYGQLVFTVKEAAAQQQESATTQKAEKEVTRMVIIMVIFFLICWLPYASVAFYIFTHQGSNFGPIFMTLPAFFAKSSSIYNPVIYIMLNKQFRNCMLTTLCCGKNPLGDDDASATASKTETSQVAPA
notes: rhodopsin, mouse, endogenous in the retina; Endogenous protein precipitated by, or detected with, the anti-rhodopsin antibody 1D4
  fold of rhodopsin precipitation with anti-GC-1 antibody over non-specific background with non-immune IgG: 6.5 fold
